2 molecules from publication PMC12630144 can be followed below.

The target of this data set is WRKY50 (Arabidopsis thaliana, UniProt Q8VWQ5 1-173). Description: EMSA. (A gel shift assay detects complexes by their altered migration in electrophoresis.)
Sequence of WRKY50 (Q8VWQ5 whole entry): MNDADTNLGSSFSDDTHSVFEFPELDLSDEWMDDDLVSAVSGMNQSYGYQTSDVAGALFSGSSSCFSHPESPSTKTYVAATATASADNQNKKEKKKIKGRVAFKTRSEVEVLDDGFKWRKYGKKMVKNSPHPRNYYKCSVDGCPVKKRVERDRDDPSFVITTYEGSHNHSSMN

B1: WK-box consensus probe (dsDNA)
DNA 1: ATCGTCTAGATCGATTTTTCCACACGATGCTAGTCGTCA
DNA 2: TGACGACTAGCATCGTGTGGAAAAATCGATCTAGACGAT
Take B1: the binding result is on record as “binds”.

B2: WT-box consensus probe (dsDNA)
DNA 1: ATCGTCTAGATCGAAAAAGTCAACCGATGCTAGTCGTCA
DNA 2: TGACGACTAGCATCGGTTGACTTTTTCGATCTAGACGAT
As for B2, the binding result is recorded as “binds”.
